The values that follow come from patent US20160362487A1 (Regeneron, published 2016).

The target in assay [1] is T1, human IL-33 (R&D Systems, #3625-IL-010/CF) (human, UniProt O95760 112-270).
T1 construct: Commercial recombinant protein; also called hIL-33; interleukin-33
T1 sequence (looked up): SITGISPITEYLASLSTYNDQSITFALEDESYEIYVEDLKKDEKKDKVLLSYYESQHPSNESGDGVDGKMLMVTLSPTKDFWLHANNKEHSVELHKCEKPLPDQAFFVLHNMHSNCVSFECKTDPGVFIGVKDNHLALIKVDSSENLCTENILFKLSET
Put plainly: SPR 25C, pH6.0 chase, mAb captured. As to the method:
(§1) Equilibrium dissociation constants (KD values) for IL-33 binding to purified anti-IL-33 monoclonal antibodies were determined using a real-time surface plasmon resonance biosensor using a Biacore 4000 instrument. The Biacore sensor surface was first derivatized by amine coupling with either a polyclonal rabbit anti-mouse antibody (GE, # BR-1008-38) or with a monoclonal mouse anti-human Fc antibody (GE, # BR-1008-39) to capture anti-IL-33 monoclonal antibodies expressed with mouse or with human IgG4 constant regions, respectively. All Biacore binding studies were performed in 0.01M ADA pH 7.4, 0.15M NaCl, 3 mM EDTA, and 0.05% v/v Surfactant Tween-20 (ABS-ET running buffer). […] Association of either hIL-33 or MfIL-33-6His to the captured monoclonal antibody was monitored for 4 minutes and their dissociation in ABS-ET running buffer was monitored for 10 minutes. The effect of reduced pH on the binding of each anti-IL-33 antibody to either hIL-33 or MfIL-33-6His was studied using an in-line pH chase assay format in 0.01M ADA pH 6.0, 0.15M NaCl, 3 mM EDTA, and 0.05% v/v Surfactant Tween-20 (ABS-ET pH6 buffer). To achieve this, association of either hIL-33 or MfIL-33-6His to the captured monoclonal antibody was monitored for 4 minutes in ABS-ET running buffer. Following a 30 second dissociation of either hIL-33 or MfIL-33-6His in ABS-ET running buffer, ABS-ET pH6 buffer was injected for 3 minutes, and the analyte dissociation under the low-pH conditions was measured. All the binding kinetic experiments were performed at both 25° C. and 37° C. Kinetic association (kₐ) and dissociation (kd) constants were determined by fitting the real-time sensorgrams to a 1:1 binding model using Scrubber 2.0c curve fitting software. Binding dissociation equilibrium constants (KD) and dissociative half-lives (t½) were calculated from the kinetic rate constants as: […]

The target of assay [2] is T2, cynomolgus monkey IL-33 expressed with a C-terminal hexahistidine tag (cynomolgus monkey).
T2 construct: also called MfIL-33-6His; Mf-IL-33-6His
T2 chain: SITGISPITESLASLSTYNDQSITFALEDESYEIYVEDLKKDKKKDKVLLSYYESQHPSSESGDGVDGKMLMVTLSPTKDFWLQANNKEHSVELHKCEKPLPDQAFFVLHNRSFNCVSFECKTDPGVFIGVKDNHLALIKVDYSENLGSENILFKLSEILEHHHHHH
Put plainly: SPR 25C, pH6.0 chase, mAb captured. As to the method: as §1

Assay [3] concerns the target T2, cynomolgus monkey IL-33 expressed with …. Put plainly: BLI; captured MfIL-33-6His, mAb-1 step with Buffer. As to the method:
Binding competition between a panel of different anti-IL-33 monoclonal antibodies was determined using a real time, label-free bio-layer interferometry assay on an Octet® HTX biosensor (ForteBio, A Division of Pall Life Sciences). The experiment was performed at 25° C. using a buffer of 0.01M HEPES pH7.4, 0.15M NaCl, 3 mM EDTA, 0.05% v/v Surfactant Tween-20, and 0.1 mg/ml BSA (HBS-ET kinetics buffer) with the plate shaking at a speed of 1000 rpm. […] The antigen-captured biosensors were then saturated with a first anti-IL-33 monoclonal antibody (subsequently referred to as mAb-1) by immersion into wells containing 50 μg/mL solution of mAb-1 for 5 minutes. The biosensors were then dipped into wells containing a 50 μg/mL solution of a second anti-IL-33 monoclonal antibody (subsequently referred to as mAb-2) for 4 minutes. The biosensors were washed in HBS-ET kinetics buffer in between every step of the experiment. The real-time binding response was monitored during the experiment, and the maximum binding response for each binding step was recorded. The response of mAb-2 binding to MfIL-33-6His pre-complexed with mAb-1 was measured, and competitive/non-competitive behavior of different anti-IL-33 monoclonal antibodies with respect to each other was determined.
(In general: Biolayer interferometry detects binding as a change in optical thickness at a sensor tip.)

For assay [4] the target is unchanged. The assay is described as follows: competition ELISA, 150 pM MfIL-33-6His on coated hST2-hFc. As to the method:
The ability of anti-IL-33 antibodies to block either human IL-33 (hIL-33) or cynomologus monkey IL-33 binding to the human ST2 receptor was measured using a competition sandwich ELISA. […] The antibody/IL-33 mixtures were incubated for 1 hour at room temperature before they were transferred to the hST2-hFc-coated microtiter plates. After incubating for 1 hour at room temperature, the wells were then washed, and plate-bound biotin-hIL-33 was detected with streptavidin conjugated with horse-radish peroxidase (HRP) (Thermo Scientific, Cat # N200), and plate-bound MfIL-33-6His was detected with a HRP conjugated anti-His monoclonal antibody (Qiagen, #34460). All samples were developed with a TMB solution (BD biosciences, #51-2607KC) to produce a colorimetric reaction and then quenched by acidification with 1M sulfuric acid before measuring absorbance at 450 nm on a Victor X5 plate reader. Data analysis was performed using a sigmoidal dose-response model within Prism™ software. […] Percent blockade was calculated as the ratio of the reduction in signal observed in the presence of antibody relative to the difference between the signal with IL-33 alone and background (signal from HRP-conjugated secondary antibody or streptavidin alone). The absorbance measured for the constant concentration of biotin-hIL-33 or MfIL-33-6His alone is defined as 0% blocking and the absorbance measured for no added IL-33 is defined as 100% blocking.

B1: H1M9568N (antibody, mouse IgG1, V domains shown)
VH: QVLLVQSGAEVKKPGATVKVSCKASGSTFTGYYMHWVRQAPGQGLEWMGWINPNNGGTNYAQKFQGRVTMTRDTSISTAYMELSRLRSDDTAVYYCARELRYNWKSWGQGTLVTVSS
VL: EIVLTQSPGTLSLSPGERVTLSCRASQSVGRPYLAWYQQIPGQAPRLLIYGASSRATDIPDRFSGNGSGTDFTLTISRLEPEDFAVYYCQQYDNSPYTFGQGTRLEIK
notes: Human variable domains, mouse IgG1 Fc (H1M)
By koff is commonly meant the rate constant with which the complex falls apart. What is called t½ is the time in which the quantity being followed falls by half. A word on the IC50: it is the midpoint of a concentration-inhibition curve. With B1, in assay [1], the dissociation rate constant (koff) came out at 0.000178 s⁻¹, the t½ stood at 65 min and the “t½ Ratio (pH 7.4/pH 6.0)” value amounted to 1.4. Further, in assay [2], the koff was determined as 0.000302 s⁻¹, the t½ worked out at 38 min and the “t½ Ratio (pH 7.4/pH 6.0)” value was found to be 1.2. Moreover, the “mAb-2 Binding to the Pre-complex of mAb-1 & MfIL-33-6xHis” value (from here on “mAb-2 Binding to the Pre-complex”) in assay [3] worked out at 0.37 nm. In assay [4], the “% Maximum blocking” value worked out at 38% and the IC50 was determined as 0.84 nM.

B2: H1M9566N (antibody, mouse IgG1, V domains shown)
VH: EVQLLESGGDLVQPGGSLRLSCAASGFTFSSYAMSWVRQAPGKGLEWVSVISGSGSSTDYADSVKGRFTISRDNSRDTLHLQMNSLRAEDTAVYYCAKTFYYFYGLDVWGQGTTVTVSS
VL: DIQMTQSPSSLSASLRDRVTITCRASQGISNYLAWYQQKPGKVPKVLIYAASTLQSGVPSRFSGSGSGTVFTLTISSLQTEDVATYYCQKYSSAPFTFGPGTKVDIK
notes: as for B1
In the case of B2, in assay [1], the koff was found to be 0.00011 s⁻¹, the t½ came to 105 min and the “t½ Ratio (pH 7.4/pH 6.0)” value is 11. Further, in assay [2], the off-rate constant (koff) turned out to be 0.000126 s⁻¹, the t½ was 91 min and the “t½ Ratio (pH 7.4/pH 6.0)” value was 1.3. In addition, the “mAb-2 Binding to the Pre-complex” value in assay [3] is 0.39 nm. Further, in assay [4], the “% Maximum blocking” value was found to be 41% and the IC50 came to 0.22 nM.

B3: H1M9565N (antibody, mouse IgG1, V domains shown)
VH: QVTLKESGPVLVKPTESLTLTCSVSGFSLSNVRMGVSWIRQSPGKALEWLAHIFSNDEKSYTTSLKTRLTISKDTSRSQVVLTMTDMDPGDTATYYCARIRNLAFNYWGQGTLVTVSS
VL: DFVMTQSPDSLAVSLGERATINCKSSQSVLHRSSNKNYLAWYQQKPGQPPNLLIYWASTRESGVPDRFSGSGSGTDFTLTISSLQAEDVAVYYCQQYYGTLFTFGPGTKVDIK
notes: as for B1
As for B3, in assay [2], the off-rate constant (koff) was found to be 0.000143 s⁻¹, the t½ is 81 min and the “t½ Ratio (pH 7.4/pH 6.0)” value was 2. In assay [3], the “mAb-2 Binding to the Pre-complex” value was 0.34 nm. Further, in assay [4], the “% Maximum blocking” value worked out at 86% and the IC50 was found to be 12 nM.

B4: H4H9633P (antibody, human IgG4, V domains shown)
VH: EVQLVESGGGLVQPGGSLRLSCAASGFTFSSYVMSWVRQAPGKGLEWVSSISGNGGSTNYADSVKGRFTISRDNSKNTLFLEMNSLRAEDTAVYYCAKSLGTTTTFLGFDYWGQGTLVTVSS
VL: DIQMTQSPSSVSASVGDRVTITCRASQGISSWLAWYQQKPGKAPKLLIYAASSLQSGVPSRFSGSGSGTYFTLTISSLQPEDFATYYCQQANSFPLTFGGGTKVEIK
notes: Human IgG4 Fc (H4H)
Regarding B4, in assay [1], the koff was 0.00081 s⁻¹, the t½ turned out to be 14 min and the “t½ Ratio (pH 7.4/pH 6.0)” value was determined as 2.9. Also, in assay [2], the dissociation rate constant (koff) amounted to 0.00287 s⁻¹, the t½ was determined as 4 min and the “t½ Ratio (pH 7.4/pH 6.0)” value was 0.3. In assay [3], the “mAb-2 Binding to the Pre-complex” value worked out at 0.32 nm.

B5: H4H9666P (antibody, human IgG4, V domains shown)
VH: QVQLVQSGAEVKKPGASVKVSCKASGYTFTSYGISWVRQAPGQGLEWMGWIRAYNGYTNYAQKFQGRVTMTTDTSTNTAYMELRTLNSDDTAVYYCARDRYSGSFHGNFDYWGQGTLVTVSS
VL: DIQMTQSPSSVSASVGDRVTITCRASQGIFSWLAWYQQKPGKAPKVLIYAASNLESGVPSRFSGSGSGTDFTLTISSLQPEDFATYYCQQANSLPLTFGGGTKVEIK
notes: Human IgG4 Fc (H4H)
B5: in assay [1], the koff was 0.00134 s⁻¹, the t½ amounted to 9 min and the “t½ Ratio (pH 7.4/pH 6.0)” value was determined as 4.8. In addition, in assay [2], the dissociation rate constant (koff) worked out at 0.00809 s⁻¹, the t½ amounted to 1.4 min and the “t½ Ratio (pH 7.4/pH 6.0)” value was determined as 2.3. The “mAb-2 Binding to the Pre-complex” value in assay [3] is 0.32 nm. In assay [4], the “% Maximum blocking” value amounted to 40% and the IC50 was determined as 13 nM.

B6: H4H9676P (antibody, human IgG4, V domains shown)
VH: EVQLVESGGGLVQPGGSLRLSCSASGFTFSSYAMNWVRQAPGKGLEWVTAISGSGGGTYYADSVKGRFTISRDNSKNSLFLQLNSLRAEDTAVYYCAKQTYTSSWYGGFDIWGQGTMVTVSS
VL: DIQMTQSPSSVSASVGDRVTITCRASQGFSSWLAWYQQIPGKAPKLLIYAASRLQSGVPSRFRGSGSGTDFTLTISSLQPEDFATYYCQQANSFPLTFGGGTKVEIK
notes: Human IgG4 Fc (H4H)
Take B6: in assay [1], the off-rate constant (koff) stood at 0.00121 s⁻¹, the t½ amounted to 10 min and the “t½ Ratio (pH 7.4/pH 6.0)” value came to 3.5. Further, in assay [2], the off-rate (koff) is 0.00145 s⁻¹, the t½ came to 8 min and the “t½ Ratio (pH 7.4/pH 6.0)” value was determined as 0.4. In addition, the “mAb-2 Binding to the Pre-complex” value in assay [3] came to 0.29 nm. In assay [4], the “% Maximum blocking” value is 57% and the half-inhibitory concentration (IC50) stood at 3.2 nM.

B7: H4H9672P (antibody, human IgG4, V domains shown)
VH: EVQLVESGGGLVQPGGSLRLSCAASGFTLRSYVMYWVRQGPGKGLEGVSGISGSSGGTYYTDSVKGRFTISRDNSKNTLFLQMNSLRAEDTAVYFCARSVYSTTWYGGFQHWGQGTLVTVSS
VL: DIQMTQSPSSVSVSVGDRVTITCRASQVISSWLAWYQLKPGKAPKLLIYAASSLQSGVPSRFSGSGSGTDFTLTISGLQPEDFAVYYCQQTNSFPLTFGGGTKVEIK
notes: Human IgG4 Fc (H4H)
Regarding B7, in assay [1], the koff was found to be 0.00141 s⁻¹, the t½ stood at 8 min and the “t½ Ratio (pH 7.4/pH 6.0)” value amounted to 4. Further, in assay [2], the off-rate (koff) amounted to 0.00267 s⁻¹, the t½ came out at 4 min and the “t½ Ratio (pH 7.4/pH 6.0)” value was determined as 0.7. Further, the “mAb-2 Binding to the Pre-complex” value in assay [3] was determined as 0.3 nm. Also, in assay [4], the “% Maximum blocking” value was found to be 48% and the 50% inhibitory concentration (IC50) worked out at 5.5 nM.

B8: H4H9670P (antibody, V domains shown)
VH: EVQLVESGGGLVQPGGSLRLSCAASGFTLSSYAMSWVRQAPGKGLEWVSAISGSGGSTYYADSVKGRFTISRDNSKNSLYLQLNSLRAEDTAVYYCAKTLYTTSWYGGFQHWGQGTLVTVSS
VL: DIQMTQSPSSVSASIGDRVTITCRASQGISSWLAWYQQKPGKVPKLLIYAASSLQSGFPSRFSGSGSGTDFTLTISSLQPEDFATYYCQQTHSFPWTVGQGTKVEIK
notes: Human IgG4 Fc (H4H)
For B8, in assay [1], the koff came to 0.000825 s⁻¹, the t½ amounted to 14 min and the “t½ Ratio (pH 7.4/pH 6.0)” value is 2.9. Further, in assay [2], the koff was found to be 0.000393 s⁻¹, the t½ was 29 min and the “t½ Ratio (pH 7.4/pH 6.0)” value worked out at 0.2. In addition, in assay [3], the “mAb-2 Binding to the Pre-complex” value was determined as 0.3 nm. Besides, in assay [4], the “% Maximum blocking” value came out at 69% and the IC50 is 3.5 nM.
